# Test results: patent US20040029178A1, “Novel g protein-coupled receptor proteins and dnas thereof” (priority 2000, published 2004)
# Ends that are not written are not given here. * marks the point of attachment. 125I = [125I]*
# T1: TGR26 (Rattus norvegicus, UniProt Q56UD9)
# T1 construct: expressed in transfected cells; whole cells in A1, membrane fraction in A2 and A3
# T1 sequence (Q56UD9 1-329): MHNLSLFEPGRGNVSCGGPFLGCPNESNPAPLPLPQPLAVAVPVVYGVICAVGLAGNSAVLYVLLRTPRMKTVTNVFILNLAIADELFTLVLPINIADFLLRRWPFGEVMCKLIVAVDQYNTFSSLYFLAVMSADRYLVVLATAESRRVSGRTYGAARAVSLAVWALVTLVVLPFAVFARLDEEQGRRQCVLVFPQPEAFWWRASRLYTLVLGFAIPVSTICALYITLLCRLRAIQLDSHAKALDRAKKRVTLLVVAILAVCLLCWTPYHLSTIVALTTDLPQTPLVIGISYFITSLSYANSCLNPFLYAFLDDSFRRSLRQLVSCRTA
# T2: TGR26, the rat-derived novel G protein-coupled receptor protein (rat, UniProt Q56UD9 1-329)
# T2 construct: Expressed in CHO dhfr- cells from pAK-rGPR7; also called rat TGR26; TGR26 receptor
# T2 sequence: T1 sequence (Q56UD9 1-329)
# Key:
# TGR26 [1] = target: T1, TGR26; test: GTPγS binding activity using a membrane fraction of TGR26 expressing CHO cells; type: biochemical; details: various concentrations
# Procedure: Promoting activity for [^35S]-guanosine 5′-(γ-thio) triphosphate (GTPγS) binding to a membrane fraction of TGR26 expressing cells was assayed in accordance with the following method.
# To 1×10^8 of TGR26 expressing CHO cells, 10 ml of homogenating buffer (10 mM NaHCO3, 5 mM EDTA, 0.5 mM PMSF (phenylmethylsulfonyl fluoride), 1 μg/ml Pepstatin, 4 μg/ml E-64, 20 μg/ml Leupeptin) was added, and the cells were disrupted using Polytron (12,000 rpm, 1 minute). Supernatant was obtained from the disrupted cell suspension by centrifugation (1,000 g, 15 minutes). In addition, the supernatant was ultracentrifuged (Beckman Type 30 rotor, 30,000 rpm, 1 hour), and precipitate obtained was kept as a membrane fraction of TGR26 expressing CHO cells.
# The membrane fraction of TGR26 expressing CHO cells was diluted with membrane dilution buffer (50 mM Tris HCl buffer (pH 7.4), 5 mM MgCl2, 150 mM NaCl, 1 μM GDP, 0.1% BSA) to prepare a cell membrane fraction solution for assay at 30 μg/ml of protein concentration. To 200 μl of membrane fraction solution for assay, 2 μl of 50 nM [^35S]-guanosine 5′-(γ-thio) triphosphate (NEN) and 2 μl of sample/DMSO solution having an appropriate concentration were added. Then the mixture was incubated at 25° C. for one hour. The mixture was filtrated, and further the filter was washed twice with 1.5 ml of washing buffer (50 mM Tris HCl buffer (pH 7.4), 5 mM MgCl2, 1 mM EDTA, 0.1% BSA). Finally, a radioactivity on the filter was determined by liquid scintillation counter.
# Various concentration of hGPR8L (1-23) or hGPR8L (1-30) was mixed with a membrane fraction of the TGR26 expressing cell in accordance with the method described in Example 6, and a promoting activity of GTPγS binding was assayed.
# TGR26 [2] = target: T1, TGR26; test: Inhibition of intracellular cAMP production using TGR26 expressing CHO cells; type: cell-based; details: 2 μM forskolin, various concentrations
# Procedure: TGR26 expressing CHO cells prepared in Example 3 were seeded on 24-well plate at 5×10^4 cells/well and cultivated for 48 hours. The cells were washed with MEMα buffer (pH 7.4) containing 0.2 mM 3-isobutyl-methylxanthine, 0.05% BSA (bovine serum albumine) and 20 mM HEPES [hereafter, MEMα buffer (pH 7.4) containing 0.2 mM 3-isobutyl-methylxanthine, 0.05% BSA (bovine serum albumine) and 20 mM HEPES may be referred to as reaction buffer]. Then, 0.5 ml of the reaction buffer was added to the cells and the suspension was incubated for 30 minutes in the incubator. After removal of the reaction buffer and newly adding 0.25 ml of the reaction buffer to the cells, an appropriate concentration of sample in DMSO solution and 0.25 ml of the reaction buffer containing 2 μM forskolin were added to the cells and the mixture was reacted at 37° C. for 30 minutes. For termination of the reaction, 100 μl of 20% perchloric acid was added. Subsequently, the mixture was stood on ice for an hour to extract intracellular cAMP. The cAMP level in the extract was measured using the cAMP EIA Kit (Amersham Pharmacia Biotech).
# The human homologue of GPR8 ligand peptide consisting of 23 residues represented by […], which was obtained in Reference Example 12 (hereafter, sometimes referred to as hGPR8L (1-23)), or the human homologue of GPR8 ligand peptide consisting of 30 residues represented by […], which was obtained in Reference Example 13 (hereafter, sometimes referred to as hGPR8L (1-30)) was administered at various concentrations to […] TGR26 expressing CHO cells by the method described in Example 4, and an inhibiting activity of intracellular cAMP production was measured.
# In the figure, when an amount subtracted intracellular cAMP level with the reaction buffer from intracellular cAMP level with the reaction buffer containing forskolin is indicated as 100%, the inhibiting activity of cAMP synthesis is indicated as an amount subtracted intracellular cAMP level with hGPR8L (1-23) or hGPR8L (1-30) from intracellular cAMP level with the reaction buffer by representation of percentage (%).
# TGR26 [3] = target: T1, TGR26; test: Receptor binding using [125I-Tyr10]-hGPR8L (1-23) and membrane fraction of TGR26 expressing CHO cells; details: membrane fraction of TGR26 expressing cells; in words
# Procedure: Using [^125I-Tyr^10]-hGPR8L (1-23) prepared by the method described in Reference Example 15 and a cell membrane fraction prepared from TGR26 expressing cells as described in Example 6, a receptor binding assay was carried out as follows.
# (§1) Cell membrane fraction prepared from TGR26 expressing cells was diluted to various concentration with assay buffer (25 mM Tris-HCl, 5 mM EDTA, 0.05% CHAPS (3-[(3-Cholamidopropyl) Dimethyl-Ammonio]-1-Propanesulfonate), 0.1% BSA, 0.5 mM PMSF, 1 μg/ml Pepstatin, 20 μg/ml Leupeptin, 4 μg/ml E-64, pH 7.4), and 200 μl each of the diluent was dispensed into polypropilene test tube (Falcon 2053). In order to determine an amount of maximum binding, 2 μl of DMSO and 2 μl of 7 nM [^125I-Tyr^10]-hGPR8L (1-23) were added to the membrane fraction solution. Further, in order to determine a non-specific binding, 2 μl of 100 μM hGPR8L (1-23)/DMSO solution and 2 μl of 7 nM [^125I-Tyr^10]-hGPR8L (1-23) were added to the membrane fraction solution. The reaction was done at 25° C. for 75 minutes, and the reaction mixture was filtered by suction filtration using Whatman glassfilter (GF-F) treated with polyethyleneimine. In addition, the filter was washed twice with 1.5 ml of washing buffer (25 mM Tris-HCl, 5 mM EDTA, 0.05% CHAPS, 0.1% BSA, pH 7.4). After filtration, a radioactivity remaining on the filter was counted using γ-counter, and an amount of specific binding was estimated by subtracting an amount of non-specific binding from an amount of maximum binding.
# Where the concentration of membrane fraction was set to 3 μg/ml, an inhibition for the specific binding of [125I-Tyr^10]-hGPR8L (1-23) to the membrane fraction of TGR26 expressing cells by hGPR8L (1-23) and hGPR8L (1-30) was investigated.
# A receptor binding activity of human- and porcine-homologue derivatives of GPR8 ligand peptide obtained in the reference examples was measured using a membrane fraction of TGR26 expressing CHO cells and [^125I-Tyr^10]-hGPR8L (1-23) by the method described in Example 8. The receptor binding activity is represented by concentration of 50% inhibition for binding (IC50 value).
# [4] = target: T2, TGR26, the rat-derived novel G …; test: competition with [125I-Tyr10]-hGPR8L (1-23) for membrane fraction of TGR26 expressing CHO cells
# Procedure: (§2) Using [¹²⁵I-Tyr¹⁰]-hGPR8L (1-23) prepared by the method described in Reference Example 15 and a cell membrane fraction prepared from TGR26 expressing cells as described in Example 6, a receptor binding assay was carried out as follows.
# as §1, with “[¹²⁵I-Tyr¹⁰]-hGPR8L” for “[^125I-Tyr^10]-hGPR8L”, “In addition, the filter was washed twice with 1.5 ml of washing buffer (25 mM Tris-HCl, 5 mM EDTA, 0.05% CHAPS, 0.1% BSA, pH 7.4).” left out, “binding. […]” for “binding.”
# [5] = target: T2, TGR26, the rat-derived novel G …; test: radioligand binding to membrane fraction of TGR26 expressing CHO cells, filtration, gamma counting
# Procedure: as §2
# as §1, with “[¹²⁵I-Tyr¹⁰]-hGPR8L” for “[^125I-Tyr^10]-hGPR8L”, “In addition, the filter was washed twice with 1.5 ml of washing buffer (25 mM Tris-HCl, 5 mM EDTA, 0.05% CHAPS, 0.1% BSA, pH 7.4).” left out, “binding. […]” for “binding.”
Molecule,inhibition for the specific binding of [125I-Tyr10]-hGPR8L (1-23) (TGR26 [3]),IC50 [4] [nM],binding result [5],promoting activity of GTPγS binding (TGR26 [1]),inhibiting activity of intracellular cAMP production (TGR26 [2])
"CSCC[C@H](NC(=O)[C@H](CC(C)C)NC(=O)[C@H](CC(C)C)NC(=O)CNC(=O)[C@H](C)NC(=O)[C@H](C)NC(=O)[C@H](CCCNC(=N)N)NC(=O)CNC(=O)[C@@H](NC(=O)[C@@H](NC(=O)[C@H](Cc1c[nH]cn1)NC(=O)[C@H](Cc1ccc(O)cc1)NC(=O)[C@H](CCCNC(=N)N)NC(=O)[C@@H]1CCCN1C(=O)[C@H](CO)NC(=O)[C@H](C)NC(=O)[C@@H](NC(=O)[C@H](Cc1c[nH]cn1)NC(=O)[C@H](CCCCN)NC(=O)[C@H](Cc1ccc(O)cc1)NC(=O)[C@@H](N)Cc1c[nH]c2ccccc12)[C@@H](C)O)[C@@H](C)O)C(C)C)C(=O)NCC(=O)N[C@@H](CC(C)C)C(=O)O [pGPR8L (1-23), Trp-Tyr-Lys-His-Val-Ala-Ser -Pro-Arg-Tyr-His-Thr-Val-Gly-Arg-Ala-Ala-Gly-Leu-Leu-Met-Gly-Leu]",,,,GTPγS binding of the TGR26 expressing CHO cells was promoted depending on the concentration,intracellular cAMP production of the TGR26 expressing CHO cells was inhibited depending on the concentration
"SEQ ID NO: 92: mouse homologue of hGPR8L (1-30), ligand peptide to GPR8 deduced from SEQ ID NO: 90 (WYKHVASPRYHTVGRASGLLMGLRRSPYQW; Mouse)",can also be confirmed,,,GTPγS binding of the TGR26 expressing CHO cells was promoted depending on the concentration,intracellular cAMP production of the TGR26 expressing CHO cells was inhibited depending on the concentration
"SEQ ID NO: 74: rat homologue of hGPR8L (1-30), ligand peptide to GPR8 deduced from SEQ ID NO: 72 (WYKHVASPRYHTVGRASGLLMGLRRSPYLW; Rat)",can also be confirmed,,,GTPγS binding of the TGR26 expressing CHO cells was promoted depending on the concentration,intracellular cAMP production of the TGR26 expressing CHO cells was inhibited depending on the concentration
"WYKHVASPRYHTVGRAAGLLMGL-OH (also called human GPR8 ligand (1-23)) [human homologue of GPR8 ligand peptide consisting of 23 residues, hGPR8L (1-23)]",,0.12,,,

# Now from value to molecule, other results behind:
inhibition for the specific binding of [125I-Tyr10]-hGPR8L (1-23) (TGR26 [3]),IC50 [4] [nM],binding result [5],Molecule,promoting activity of GTPγS binding (TGR26 [1]),inhibiting activity of intracellular cAMP production (TGR26 [2])
can also be confirmed,,,"SEQ ID NO: 57: porcine homologue of hGPR8L (1-30), ligand peptide to GPR8 deduced from SEQ ID NO: 55 (WYKHTASPRYHTVGRAAGLLMGLRRSPYMW; Porcine)",GTPγS binding of the TGR26 expressing CHO cells was promoted depending on the concentration,intracellular cAMP production of the TGR26 expressing CHO cells was inhibited depending on the concentration
can also be confirmed,,,Trp-Tyr-Lys-His-Val-Ala-Ser -Pro-Arg-Tyr-His-Thr-Val-Gly-Arg-Ala-Ala-Gly-Leu-Leu-Met-Gly-Leu [SEQ ID NO: 73],GTPγS binding of the TGR26 expressing CHO cells was promoted depending on the concentration,intracellular cAMP production of the TGR26 expressing CHO cells was inhibited depending on the concentration
,,binds,WYKHVASPRY(125I)HTVGRAAGLLMGL-OH [[^125I-Tyr^10]-hGPR8L (1-23)],,
